What is called Ki is a measure of affinity in units of concentration, obtained from inhibition or displacement. A low value points to tighter binding.

Assay [1] concerns the target Acylpeptide hydrolase from Sulfolobus solfataricus (Sulfolobus solfataricus).
Assay [2] shares this target. As to the kind of experiment: enzyme inhibition kinetics (Lineweaver-Burk); APEHSs pre-incubated with the peptide 30 min at 80°C, 25 mM Tris-HCl pH 7.5, substrate acetyl-Leu-pNA; competitive inhibition.

Chain of Acylpeptide hydrolase from Sulfolobus solfataricus (Sulfolobus solfataricus) (Q7LX61 entry or part of it): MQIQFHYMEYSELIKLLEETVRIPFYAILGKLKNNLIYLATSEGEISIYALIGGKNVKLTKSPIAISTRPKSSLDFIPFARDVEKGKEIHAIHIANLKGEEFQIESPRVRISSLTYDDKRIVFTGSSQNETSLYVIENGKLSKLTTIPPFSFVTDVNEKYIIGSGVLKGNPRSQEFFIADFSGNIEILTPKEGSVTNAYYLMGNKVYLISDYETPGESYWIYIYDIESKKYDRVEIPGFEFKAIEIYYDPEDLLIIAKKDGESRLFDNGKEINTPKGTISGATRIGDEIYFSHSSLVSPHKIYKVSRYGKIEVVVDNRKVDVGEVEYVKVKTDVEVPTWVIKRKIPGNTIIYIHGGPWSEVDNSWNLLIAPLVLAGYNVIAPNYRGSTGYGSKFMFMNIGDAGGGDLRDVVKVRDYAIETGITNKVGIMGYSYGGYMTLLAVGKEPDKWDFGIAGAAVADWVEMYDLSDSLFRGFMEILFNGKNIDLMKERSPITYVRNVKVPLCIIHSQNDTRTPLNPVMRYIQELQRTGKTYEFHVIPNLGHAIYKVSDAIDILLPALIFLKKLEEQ

As for H-TILLEIKNINAD-NH2 [SsCEI 2], the IC50 of inhibition of APEHSs activity (substrate Ac-Leu-pNA) in assay [1] was determined as 9.8 µM. The molecule further gave a Ki in assay [2] of 1000 nM.

(Values after paper PMC3189933, “Acylpeptide Hydrolase Inhibition as Targeted Strategy to Induce Proteasomal Down-Regulation” (PLoS ONE, 2011).)
